The test addresses mouse OX40 receptor, cell-expressed (DO11.10-mOX40) (mouse) (UniProt P47741). Put plainly: cell-based or functional assay.

Sequence of mouse OX40 receptor, cell-expressed (DO11.10-mOX40) (mouse) (P47741 20-272): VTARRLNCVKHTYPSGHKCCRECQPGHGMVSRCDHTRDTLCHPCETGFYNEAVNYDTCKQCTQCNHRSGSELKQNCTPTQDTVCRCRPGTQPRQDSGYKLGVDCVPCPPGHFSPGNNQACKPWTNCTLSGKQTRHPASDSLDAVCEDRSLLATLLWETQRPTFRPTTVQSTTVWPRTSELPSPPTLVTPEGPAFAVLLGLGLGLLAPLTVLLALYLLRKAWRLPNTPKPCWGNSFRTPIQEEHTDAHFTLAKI

B1: FS20m-232-91AA/E2A (bispecific antibody, part only; not given: E2A Fab and upper Fc, human IgG1, part only)
heavy, part: GQPREPQVYTLPPSRDELFDPMYYYNQVSLTCLVKGFYPSDIAVEWESNGEPLWDYKTTPPVLDSDGSFFLYSKLTVWRDRWEDGNVFSCSVMHEALHNHYTQKSLSLSPGK
Turning to B1, the EC50 of IL-2 release, HPAC cells present, + a-hFc worked out at 0.289 nM; the Max response, HPAC cells present, + a-hFc worked out at 18800 mIL-2 pg/ml; the Max response, crosslinked by EphA2 on HPAC cells, no crosslinking agent is 11000 mIL-2 pg/ml.

B2: FS20m-232-91AA/C9B7W (bispecific antibody, part only; not given: C9B7W Fab and upper Fc, human IgG1, part only)
heavy, part: B1 heavy, part
B2 showed an EC50 of IL-2 release, no added crosslinker (LAG3 co-expressed on T cells) of 0.175 nM and a Max response, no added crosslinker (LAG3 co-expressed on T cells) of 9670 mIL-2 pg/ml.

B3: FS20m-232-91AA/R84 (bispecific antibody, part only; not given: R84 Fab and upper Fc, human IgG1, part only)
heavy, part: B1 heavy, part
Take B3: the EC50 of IL-2 release, Xlink (VEGF) stood at 0.144 nM; the EC50 of IL-2 release, no added crosslinker came to 29.9 nM; the Max response, Xlink (VEGF) came out at 15100 mIL-2 pg/ml; the Max response, no added crosslinker was 16700 mIL-2 pg/ml.

B4: G1/OX86 (antibody, from another filing, human IgG1, V domains shown)
VH: QVQLKESGPGLVQPSQTLSLTCTVSGFSLTGYNLHWVRQPPGKGLEWMGRMRYDGDIYYNSVLKSRLSISRDTSKNQVFLKMNSLQTDDTAIYYCTRDGRGDSFDYWGQGVMVTVSS
VL: DIVMTQGALPNPVPSGESASITCRSSQSLVYKDGQTYLNWFLQRPGQSPQLLTYWMSTRASGVSDRFSGSGSGTYFTLKISRVRAEDAGVYYCQQVREYPFTFGSGTKLEIKR
B4: the EC50 of IL-2 release, HPAC cells present, + a-hFc is 0.811 nM; the EC50 of IL-2 release, Xlink (anti-hFc) is 15.6 nM; the Max response, HPAC cells present, + a-hFc came out at 17900 mIL-2 pg/ml; the Max response, Xlink (anti-hFc) came out at 16200 mIL-2 pg/ml.

The values above are taken from patent US20250361312A1.
